Measured values published in article PMC12410710.

Molecular target: CsrA (Salmonella Typhimurium) (UniProt P69916)
Assay: SEC; S75 Superdex column after Ni2+-NTA; SEC buffer 25 mM Tris, 150 mM NaCl, 10% glycerol, 1 mM DTT, pH 7.5; oligomeric state judged from the elution profile

Chain of CsrA, P69916 1-61 (natural protein; other documents disagree on this pair) (P69916 whole entry): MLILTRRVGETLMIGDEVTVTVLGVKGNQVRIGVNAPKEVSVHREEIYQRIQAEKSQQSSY

For “CsrA, P69916 1-61 (natural protein; other documents disagree on this pair)”, the stoichiometry N was 2.
